Earlier results, collected in publication PMC6815250.

Molecular target: RgpB pro-fragment pro-fragment (Porphyromonas gingivalis) (UniProt P95493)

RgpB, sequence (P95493 230-736): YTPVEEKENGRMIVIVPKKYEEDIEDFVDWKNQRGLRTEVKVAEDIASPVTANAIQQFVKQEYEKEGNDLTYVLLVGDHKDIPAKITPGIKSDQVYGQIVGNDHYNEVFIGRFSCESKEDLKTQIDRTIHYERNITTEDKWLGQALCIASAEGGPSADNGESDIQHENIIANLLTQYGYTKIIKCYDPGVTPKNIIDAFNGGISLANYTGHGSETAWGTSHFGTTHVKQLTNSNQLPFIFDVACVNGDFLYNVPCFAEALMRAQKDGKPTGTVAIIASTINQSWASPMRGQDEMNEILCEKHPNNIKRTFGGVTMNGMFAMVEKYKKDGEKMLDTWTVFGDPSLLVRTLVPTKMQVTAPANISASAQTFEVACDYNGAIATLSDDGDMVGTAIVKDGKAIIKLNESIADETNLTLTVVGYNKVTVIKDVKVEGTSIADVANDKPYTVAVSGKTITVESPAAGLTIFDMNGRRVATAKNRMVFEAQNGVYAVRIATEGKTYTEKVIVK

For RgpB (from UniProt P95493), the Ki is given as 6.3 nM.
